Reference: patent publication US20250340646A1
One block for each binder: values may come before it.

Columns and labels:
[1] = biological target: full-length human PD-L1 on K562 cells (human) (UniProt Q9NZQ7); assay: FACS, PD-L1/K562 cells
human PD-L1-Fc (human) [2] = biological target: human PD-L1-Fc (human) (UniProt Q9NZQ7); assay: SPR, PD-L1-Fc captured, scFv analyte
[3] = biological target: PD-L1 on PD-L1 aAPC/CHOK1 cells (Promega J1250); assay: cell-based or functional assay
[4] = biological target: PD-L1 biotinylated (PD-1/PD-L1 TR-FRET assay kit, BPS 72038) (Homo sapiens (Human)) (UniProt Q9NZQ7); assay: HTRF competition, competitor PD-1-Eu
human PD-L1-Fc (human) [5] = biological target: human PD-L1-Fc (human) (UniProt Q9NZQ7); assay: ELISA, coated PD-L1-Fc, anti-FLAG HRP

EC50 [1]: 5.8 nM
B1: 2018EP161-F04 scFv (scFv, part only; not given: linker and tags, not shown: small tags and cut ends)
scFv, part: QMQLVQSGAEVKKPGATVKISCKVSGYTFTDYYMHWVQQAPGKGLEWMGLVDPEDGETIYAEKFQGRVTITADTSTDTAYMELSSLRSEDTAVFYCATDGSGSYYLTLGQGTLVTVSSNFMLTQPSSLSASPGASASLTCTLPSGINVGPYGIFWYQQKPGSPPQYLLRYKSNSENHQGSGVPSRFSGSEDASANVGILLISGLQSEDEADYYCMIWHSSAWVFGGGTKVTVL

Kd (human PD-L1-Fc (human) [2]): 2.94 nM
koff (human PD-L1-Fc (human) [2]): 0.000722 s⁻¹
kon (human PD-L1-Fc (human) [2]): 245000 M⁻¹ s⁻¹
Jurkat NFAT reporter assay EC50 [3]: 129 nM
IC50 [4]: 173 nM
EC50 (human PD-L1-Fc (human) [5]): 1.27 nM
B2: 2018EP164-F04 scFv (scFv, part only; not given: linker and tags, not shown: small tags and cut ends)
scFv, part: QVQLQQWGAGLLKPSETLSLTCAVYGGSFSGYYWSWIRQPPGKGLEWIGEINHSGSTNYNPSLKSRVTISVDTSKNQFSLKLSSVTAADTAVYYCARGRRLRYFDWAAYNWFDPWGQGTLVTVSSQSALTQDPAVSVALGQTVRITCQGDSLRSHYASWYQQKPGQAPVVVVYDNSDRPSGIPDRFSGSNSGNTATLTISRVEVGDEADYYCQVWDSSSDHYVFGTGTKV
